Key:
[1] = molecular target: T1, EDIII-DV4 (E protein domain III of dengue virus serotype DV-4) (dengue virus serotype DV-4, UniProt P09866 572-679)
T1 construct: also called DENV-4

[2] = molecular target: T2, Brazil/2011 (serotype IV EDIII); assay: SPR; row Brazil/2011, serotype IV, genotype I
T2 E protein domain III (EDIII): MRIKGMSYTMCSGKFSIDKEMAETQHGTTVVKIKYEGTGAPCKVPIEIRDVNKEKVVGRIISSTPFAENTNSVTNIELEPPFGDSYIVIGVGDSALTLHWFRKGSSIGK

[3] = molecular target: T3, Hawaii/1944* (serotype I EDIII) (Dengue virus 1); assay: SPR; row Hawaii/1944*, serotype I, genotype I
T3 construct: isolated EDIII protein; also called EDIII of DENV-1 Hawaii/1944

[4] = molecular target: T4, Vietnam/2008 (serotype I EDIII)
T4 construct: also called ED3-DV1/Viet08
T4 E protein domain III (EDIII): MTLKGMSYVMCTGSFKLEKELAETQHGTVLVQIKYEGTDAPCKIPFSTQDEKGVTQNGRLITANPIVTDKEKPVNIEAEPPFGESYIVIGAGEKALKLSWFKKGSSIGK

[5] = molecular target: T2, Brazil/2011 (serotype IV EDIII); assay: ELISA; row Brazil/2011, serotype IV, genotype I
[6] = molecular target: T5, New Caledonia/2009 (serotype IV EDIII); assay: SPR; row New Caledonia/2009, serotype IV, genotype IIb
T5 construct: also called ED3-DV4/NewCal09; DENV-4 NC
T5 E protein domain III (EDIII): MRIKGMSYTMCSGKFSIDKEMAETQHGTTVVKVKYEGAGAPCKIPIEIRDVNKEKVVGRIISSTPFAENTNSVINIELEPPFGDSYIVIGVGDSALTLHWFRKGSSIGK

[7] = molecular target: T6, Mexico/1977 (BC287/97)* (serotype IV EDIII) (Dengue virus 4); assay: SPR; row Mexico/1977 (BC287/97)*, serotype IV, genotype IIa
T6 construct: isolated EDIII protein; also called EDIII of DENV-4 Mexico/1997 (BC287/97); DENV-4 BC2

[8] = molecular target: T7, EDIII-DV2 (E protein domain III of dengue virus serotype DV-2) (dengue virus serotype DV-2, UniProt P14337 573-677)
T7 construct: also called DENV-2; EDIII of DV-2
T7 sequence (P14337 573-677, tags left off): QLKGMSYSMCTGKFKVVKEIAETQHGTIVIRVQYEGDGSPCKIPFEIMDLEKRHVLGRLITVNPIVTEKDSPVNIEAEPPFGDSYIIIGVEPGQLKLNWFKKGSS

[9] = molecular target: T8, Singapore/2008 (serotype II EDIII); assay: ELISA; row Singapore/2008, serotype II, genotype Cosmopolitan
T8 construct: also called ED3-DV2/Sing08; DENV-2 Sing

[10] = molecular target: T9, New Guinea/1944 (NGC)* (serotype II EDIII) (Dengue virus 2); assay: SPR; row New Guinea/1944 (NGC)*, serotype II, genotype Asian I
T9 construct: isolated EDIII protein; also called EDIII of DENV-2 NGC
T9 sequence (P14340 578-673): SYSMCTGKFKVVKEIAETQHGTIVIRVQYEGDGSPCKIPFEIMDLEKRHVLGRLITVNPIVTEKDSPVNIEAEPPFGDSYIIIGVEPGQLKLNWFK

T1 sequence (P09866 572-679, tags left off): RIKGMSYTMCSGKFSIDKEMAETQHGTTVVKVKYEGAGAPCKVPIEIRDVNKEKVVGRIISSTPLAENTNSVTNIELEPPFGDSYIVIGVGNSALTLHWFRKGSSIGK

B1: antibody D88 (antibody, V domains shown)
VH: QVQLVQSGAEVKKPGASVKVSCKAGFNIKDVYMSWVRQAPEQGLEWMGRIDPENGDTKYDPKLQGRVTMTADTSTNTAYMELRSLRSDDTAVYYCARGWEGFAYWGQGTLVTVSS
VL: DIVMTQSPASLAVSLGERATISCRASENVDKYGNSFMHWYQQKPGQPPKLLIYRASELQWGVPDRFSGSGSGTDFTLTISSLQAEDVAVYYCQRSNEVPWTFGQGTKLEIK
notes: also called mAb D88
Kd [1]: 3.12 nM
Kd [2]: 7.9 nM
Kd [3]: 0.041 nM
Kd [4]: 0.031 nM
Kd [5]: 14.7 nM
Kd [6]: 8.9 nM
Kd [7]: 3.8 nM
Kd [8]: 0.016 nM
Kd [9]: < 0.1 nM
Kd [10]: 0.016 nM

Source: US20240425569A1 (VISTERRA, published 2024)
